From patent publication US20140004106A1

Columns and labels:
[1] = biological target: 28mer peptide of the CXCR5 antigen; test: Antigen-ELISA; Citrate 10 mM pH 6.50, T0
[2] = biological target: 28mer peptide of the CXCR5 antigen; test: Antigen-ELISA; PB 10 mM pH 6.50, after 1 week at +40°C
[3] = biological target: 28mer peptide of the CXCR5 antigen; test: Antigen-ELISA; standard run with LA_09_29B, T0
[4] = biological target: 28mer peptide of the CXCR5 antigen; test: Antigen-ELISA; PBS 155 mM pH 7.00, after mechanical stress 350 rpm 2.5 h
[5] = biological target: 28mer peptide of the CXCR5 antigen; test: Antigen-ELISA; PBS 155 mM, polyethylene low density, 24 h +40°C
[6] = biological target: 28mer peptide of the CXCR5 antigen; test: Antigen-ELISA; Succinate 10 mM pH 5.00, after 1 week at +40°C
[7] = biological target: 28mer peptide of the CXCR5 antigen; test: Antigen-ELISA; TRIS 10 mM pH 8.5, T0
[8] = biological target: 28mer peptide of the CXCR5 antigen; test: Antigen-ELISA; Citrate 10 mM pH 6.00, after 1 week at +40°C
[9] = biological target: 28mer peptide of the CXCR5 antigen; test: Antigen-ELISA; Histidine 10 mM pH 6, after 1 week at +40°C
[10] = biological target: 28mer peptide of the CXCR5 antigen; test: Antigen-ELISA; standard run with LA 09_004_9
[11] = biological target: 28mer peptide of the CXCR5 antigen; test: Antigen-ELISA; PBS 155 mM, light stress, 24 h
[12] = biological target: 28mer peptide of the CXCR5 antigen; test: Antigen-ELISA; Histidine 10 mM pH 6.5, T0
[13] = biological target: 28mer peptide of the CXCR5 antigen; test: Antigen-ELISA; Citrate 10 mM pH 7.00, after 1 week at +40°C
[14] = biological target: 28mer peptide of the CXCR5 antigen; test: Antigen-ELISA; Succinate 10 mM pH 5.00, T0
[15] = biological target: 28mer peptide of the CXCR5 antigen; test: Antigen-ELISA; PB 5 mM pH 6.50, T0
[16] = biological target: 28mer peptide of the CXCR5 antigen; test: Antigen-ELISA; Glycine 10 mM pH 7, T0
[17] = biological target: 28mer peptide of the CXCR5 antigen; test: Antigen-ELISA; PB 5 mM pH 6.50, after mechanical stress 350 rpm 2.5 h
[18] = biological target: 28mer peptide of the CXCR5 antigen; test: Antigen-ELISA; PBS 155 mM, clear glass type I as T0, 24 h
[19] = biological target: 28mer peptide of the CXCR5 antigen; test: Potency (Antigen ELISA); stored -20°C, 6 months
[20] = biological target: 28mer peptide of the CXCR5 antigen; test: Antigen-ELISA; Saline 150 mM pH 6.00, T0
[21] = biological target: 28mer peptide of the CXCR5 antigen; test: Antigen-ELISA; PB 5 mM pH 7.00, after 1 week at +40°C
[22] = biological target: 28mer peptide of the CXCR5 antigen; test: Antigen-ELISA; PBS 155 mM pH 6.50, after mechanical stress 350 rpm 2.5 h
[23] = biological target: 28mer peptide of the CXCR5 antigen; test: Antigen-ELISA; Citrate 10 mM pH 6.50, after 1 week at +40°C
[24] = biological target: 28mer peptide of the CXCR5 antigen; test: Antigen-ELISA; standard run with LA_09_004_5
[25] = biological target: 28mer peptide of the CXCR5 antigen; test: Antigen-ELISA; Citrate 10 mM pH 5.00, T0
[26] = biological target: 28mer peptide of the CXCR5 antigen; test: Antigen-ELISA; Acetate 10 mM pH 5.00, after 1 week at +40°C
[27] = biological target: 28mer peptide of the CXCR5 antigen; test: Antigen-ELISA; acetate 10 mM prototype C, T0
[28] = biological target: 28mer peptide of the CXCR5 antigen; test: Antigen-ELISA; PB 10 mM pH 7.00, after 1 week at +40°C
[29] = biological target: 28mer peptide of the CXCR5 antigen; test: Antigen-ELISA; PBS 155 mM pH 7.50, T0
[30] = biological target: 28mer peptide of the CXCR5 antigen; test: Antigen-ELISA; Citrate 10 mM pH 6.00, after mechanical stress 350 rpm 2.5 h
[31] = biological target: 28mer peptide of the CXCR5 antigen; test: ELISA potency (binding); 100 mg/mL, Arginine (30), T zero
[32] = biological target: 28mer peptide of the CXCR5 antigen; test: Antigen-ELISA; Arginine 10 mM pH 6, after 1 week at +40°C
[33] = biological target: 28mer peptide of the CXCR5 antigen; test: Antigen-ELISA; Citrate 10 mM pH 6.00, T0
[34] = biological target: 28mer peptide of the CXCR5 antigen; test: Potency (Antigen ELISA); stored +5°C, 3 months
[35] = biological target: 28mer peptide of the CXCR5 antigen; test: Antigen-ELISA; Arginine 10 mM pH 8, after 1 week at +40°C
[36] = biological target: 28mer peptide of the CXCR5 antigen; test: Ag-ELISA; DS in PBS, -20°C, 3 months
[37] = biological target: 28mer peptide of the CXCR5 antigen; test: Antigen-ELISA; PBS 155 mM pH 6.50, T0
[38] = biological target: 28mer peptide of the CXCR5 antigen; test: Antigen-ELISA; Histidine 10 mM pH 6, T0
[39] = biological target: 28mer peptide of the CXCR5 antigen; test: ELISA potency (binding); 100 mg/mL, Lysine (30) + Mannitol (15), T zero
[40] = biological target: 28mer peptide of the CXCR5 antigen; test: ELISA potency (binding); 100 mg/mL, Trehalose (60) + Mannitol (15), T zero
[41] = biological target: 28mer peptide of the CXCR5 antigen; test: Antigen-ELISA; PB 10 mM pH 7.00, after mechanical stress 350 rpm 2.5 h
[42] = biological target: 28mer peptide of the CXCR5 antigen; test: Potency (Antigen ELISA); stored +5°C, 1 month
[43] = biological target: 28mer peptide of the CXCR5 antigen; test: Potency (Antigen ELISA); stored +5°C, 15 months

B1: Lead CXCR5 Antibody (humanized IgG4 anti-CXCR5 antibody) (antibody, V domains shown)
VH: QVQLKESGPGLVAPSESLSITCTVSGFSLIDYGVNWIRQPPGKGLEWLGVIWGDGTTYYNPSLKSRLSISKDNSKSQVFLKVTSLTTDDTAMYYCARIVYWGQGTLVTVSA
VL: DIVMTQAAPSVAVTPGASVSISCRSSKSLLHSSGKTYLYWFLQRPGQSPQLLIYRLSSLASGVPDRFSGSGSGTAFTLRISRVEAEDVGVYYCMQHLEYPYTFGGGTKLEIKR
[1]
  EC50 %: 59%
[2]
  EC50 %: 78.8%
[3]
  EC50 %: 100%
[4]
  EC50 %: 50%
[5]
  EC50 %: 104%
[6]
  EC50 %: 157%
[7]
  EC50 %: 118%
[8]
  EC50 %: 98%
[9]
  EC50 %: 77%
[10]
  EC50 %: 100%
[11]
  EC50 %: 72.3%
[12]
  EC50 %: 110%
[13]
  EC50 %: 111%
[14]
  EC50 %: 124%
[15]
  EC50 %: 110%
[16]
  EC50 %: 127%
[17]
  EC50 %: 150%
[18]
  EC50 %: 62.3%
[19]
  EC50 value (in comparison to reference): 96%
[20]
  EC50 %: 96.2%
[21]
  EC50 %: 68%
[22]
  EC50 %: 79.3%
[23]
  EC50 %: 46%
[24]
  EC50 %: 100%
[25]
  EC50 %: 79%
[26]
  EC50 %: 102%
[27]
  EC50 %: 142%
[28]
  EC50 %: 109%
[29]
  EC50 %: 81%
[30]
  EC50 %: 136%
[31]
  rel. potency [%]: 160%
[32]
  EC50 %: 99%
[33]
  EC50 %: 52%
[34]
  EC50 value (in comparison to reference): 95%
[35]
  EC50 %: 88%
[36]
  EC50 %: 93%
[37]
  EC50 %: 139%
[38]
  EC50 %: 184%
[39]
  rel. potency [%]: 88%
[40]
  rel. potency [%]: 156%
[41]
  EC50 %: 61.4%
[42]
  EC50 value (in comparison to reference): 105%
[43]
  EC50 value (in comparison to reference): 114%
